B1: VRDN-02032 (antibody, V domains shown)
VH: QVQLQESGPGLVKPSETLSLTCTVSGYSITGGYLWNWIRQPPGKGLEWIGYISYDGTNNYKPSLKDRVTISRDTSKNQFSLKLSSVTAADTAVYYCARYGRVFFDYWGQGTLVTVSS
VL: DIVMTQSPLSLPVTPGEPASISCRSSHSIVHSNGNTYLQWYLQKPGQSPQLLIYKVSNRLYGVPDRFSGSGSGTDFTLKISRVEAEDVGVYYCFQGSHVPWTFGQGTKVEIK
B2: VRDN-02049 (antibody, V domains shown)
VH: B1 VH
VL: B1 VL with H27Q, L60H
B3: VRDN-02039 (antibody, V domains shown)
VH: B1 VH
VL: B1 VL with H27Q, N35H
B4: VRDN-02033 (antibody, V domains shown)
VH: B1 VH
VL: B1 VL with H27Q, S28H
B5: VRDN-02044 (antibody, V domains shown)
VH: B1 VH
VL: B1 VL with H27Q, K55H
B6: VRDN-02034 (antibody, V domains shown)
VH: B1 VH
VL: B1 VL with H27Q, I29H
B7: VRDN-02051 (antibody, V domains shown)
VH: B1 VH
VL: B1 VL with H27Q, F94H
B8: VRDN-02042 (antibody, V domains shown)
VH: B1 VH
VL: B1 VL with H27Q, L38H
B9: VRDN-02053 (antibody, V domains shown)
VH: B1 VH
VL: B1 VL with H27Q, G96H
B10: VRDN-02041 (antibody, V domains shown)
VH: B1 VH
VL: B1 VL with H27Q, Y37H
B11: VRDN-02005 (antibody, V domains shown)
VH: B1 VH with T30H
VL: B1 VL with H27Q
B12: VRDN-02052 (antibody, V domains shown)
VH: B1 VH
VL: B1 VL with H27Q, Q95H
B13: VRDN-02036 (antibody, V domains shown)
VH: B1 VH
VL: B1 VL with H27Q, S32H
B14: VRDN-02040 (antibody, V domains shown)
VH: B1 VH
VL: B1 VL with H27Q, T36H
B15: VRDN-02047 (antibody, V domains shown)
VH: B1 VH
VL: B1 VL with H27Q, N58H
B16: VRDN-02046 (antibody, V domains shown)
VH: B1 VH
VL: B1 VL with H27Q, S57H
B17: VRDN-02050 (antibody, V domains shown)
VH: B1 VH
VL: B1 VL with H27Q, Y61H
B18: VRDN-02045 (antibody, V domains shown)
VH: B1 VH
VL: B1 VL with H27Q, V56H
B19: VRDN-02037 (antibody, V domains shown)
VH: B1 VH
VL: B1 VL with H27Q, N33H
B20: VRDN-02043 (antibody, V domains shown)
VH: B1 VH
VL: B1 VL with H27Q, Q39H
B21: VRDN-02038 (antibody, V domains shown)
VH: B1 VH
VL: B1 VL with H27Q, G34H
B22: VRDN-02035 (antibody, V domains shown)
VH: B1 VH
VL: B1 VL with H27Q, V30H
B23: VRDN-02004 (antibody, V domains shown)
VH: B1 VH with I29H
VL: B1 VL with H27Q
B24: VRDN-02048 (antibody, V domains shown)
VH: B1 VH
VL: B1 VL with H27Q, R59H

Numbering of substitutions follows the chain as printed.

The first assay has as its target Recombinant human his-tagged IGF R extracellular domain protein (human) (UniProt P08069). The assay can be described thus: SPR, Ab captured via anti-huIgG Fc, dissociation at pH 6.
In the case of B1, the Kd was found to be 0.998 nM, the koff amounted to 9.61e-05 s⁻¹ and the kon was 96300 M⁻¹ s⁻¹.
Taken in the same sequence, the figures for B2 were 1.15 nM, 9.15e-05 s⁻¹ and 79500 M⁻¹ s⁻¹.
The corresponding values for B3 are 1.36 nM, 0.000109 s⁻¹ and 79800 M⁻¹ s⁻¹.
Taken in the same sequence, the figures for B4 were 1.19 nM, 0.00011 s⁻¹ and 92700 M⁻¹ s⁻¹.
With B5, the Kd is 0.759 nM, the dissociation rate constant (koff) amounted to 6.27e-05 s⁻¹ and the kon is 82600 M⁻¹ s⁻¹.
Taken in the same sequence, the figures for B6 were 1.26 nM, 0.000107 s⁻¹ and 85000 M⁻¹ s⁻¹.
The corresponding values for B7 are 1.3 nM, 8.62e-05 s⁻¹ and 66600 M⁻¹ s⁻¹.
The corresponding values for B8 are 1.08 nM, 0.000101 s⁻¹ and 94100 M⁻¹ s⁻¹.
As to B9, the Kd was 3.48 nM, the off-rate (koff) was 0.000193 s⁻¹ and the on-rate constant (kon) turned out to be 55600 M⁻¹ s⁻¹.
Taken in the same sequence, the figures for B10 were 1.16 nM, 0.000102 s⁻¹ and 87800 M⁻¹ s⁻¹.
The corresponding values for B11 are 1.16 nM, 0.000119 s⁻¹ and 102000 M⁻¹ s⁻¹.
Taken in the same sequence, the figures for B12 were 1.33 nM, 0.000156 s⁻¹ and 117000 M⁻¹ s⁻¹.
Consider B13, for which the dissociation constant (Kd) was 1.08 nM, the koff turned out to be 0.000102 s⁻¹ and the kon worked out at 94200 M⁻¹ s⁻¹.
Taken in the same sequence, the figures for B14 were 1.04 nM, 9.07e-05 s⁻¹ and 87000 M⁻¹ s⁻¹.
Taken in the same sequence, the figures for B15 were 1.48 nM, 9.84e-05 s⁻¹ and 66600 M⁻¹ s⁻¹.
The corresponding values for B16 are 1.29 nM, 0.000103 s⁻¹ and 79900 M⁻¹ s⁻¹.
Consider B17, for which the Kd worked out at 1.2 nM, the koff came to 9.87e-05 s⁻¹ and the kon was found to be 82000 M⁻¹ s⁻¹.
Regarding B18, the dissociation constant (Kd) is 1.66 nM, the dissociation rate constant (koff) was determined as 8.63e-05 s⁻¹ and the kon came to 51900 M⁻¹ s⁻¹.
The corresponding values for B19 are 1.44 nM, 0.000101 s⁻¹ and 70000 M⁻¹ s⁻¹.
The corresponding values for B20 are 1.13 nM, 9.08e-05 s⁻¹ and 80400 M⁻¹ s⁻¹.
The corresponding values for B21 are 1.31 nM, 0.000111 s⁻¹ and 84800 M⁻¹ s⁻¹.
As to B22, the Kd was determined as 1.22 nM, the koff was found to be 0.000107 s⁻¹ and the kon came out at 87600 M⁻¹ s⁻¹.
Taken in the same sequence, the figures for B23 were 6.19 nM, 0.000593 s⁻¹ and 95700 M⁻¹ s⁻¹.
The corresponding values for B24 are 1.03 nM, 8.1e-05 s⁻¹ and 78800 M⁻¹ s⁻¹.

The target is the same in the next assay. The experiment in a line: SPR, Ab captured via anti-huIgG Fc, pH 7.4.
Consider B1, for which the Kd amounted to 0.769 nM, the koff was 7.16e-05 s⁻¹ and the kon was 93100 M⁻¹ s⁻¹.
Taken in the same sequence, the figures for B2 were 0.946 nM, 7.92e-05 s⁻¹ and 83700 M⁻¹ s⁻¹.
The corresponding values for B3 are 0.586 nM, 5.26e-05 s⁻¹ and 89800 M⁻¹ s⁻¹.
The corresponding values for B4 are 0.822 nM, 8.1e-05 s⁻¹ and 98500 M⁻¹ s⁻¹.
For B5, the Kd stood at 0.551 nM, the koff was determined as 4.69e-05 s⁻¹ and the kon came to 85200 M⁻¹ s⁻¹.
Taken in the same sequence, the figures for B6 were 1.03 nM, 0.000105 s⁻¹ and 101000 M⁻¹ s⁻¹.
The corresponding values for B7 are 1.03 nM, 7.59e-05 s⁻¹ and 74000 M⁻¹ s⁻¹.
The corresponding values for B8 are 0.704 nM, 7.31e-05 s⁻¹ and 104000 M⁻¹ s⁻¹.
Turning to B9, the Kd is 7.18 nM, the koff was determined as 0.00243 s⁻¹ and the kon was found to be 338000 M⁻¹ s⁻¹.
Taken in the same sequence, the figures for B10 were 0.795 nM, 7.59e-05 s⁻¹ and 95500 M⁻¹ s⁻¹.
The corresponding values for B11 are 0.71 nM, 6.09e-05 s⁻¹ and 85800 M⁻¹ s⁻¹.
As to B12, the Kd worked out at 0.564 nM, the koff came to 5.7e-05 s⁻¹ and the kon was 101000 M⁻¹ s⁻¹.
Taken in the same sequence, the figures for B13 were 0.444 nM, 4.42e-05 s⁻¹ and 99500 M⁻¹ s⁻¹.
Taken in the same sequence, the figures for B14 were 1.22 nM, 0.000104 s⁻¹ and 85400 M⁻¹ s⁻¹.
For the molecule B15, the Kd is 0.622 nM, the koff came out at 5.34e-05 s⁻¹ and the kon amounted to 85900 M⁻¹ s⁻¹.
Taken in the same sequence, the figures for B16 were 0.569 nM, 5.23e-05 s⁻¹ and 92000 M⁻¹ s⁻¹.
For B17, the Kd stood at 0.603 nM, the koff stood at 6.7e-05 s⁻¹ and the kon turned out to be 111000 M⁻¹ s⁻¹.
Taken in the same sequence, the figures for B18 were 1.1 nM, 6.49e-05 s⁻¹ and 59200 M⁻¹ s⁻¹.
Taken in the same sequence, the figures for B19 were 0.844 nM, 6.43e-05 s⁻¹ and 76200 M⁻¹ s⁻¹.
Take B20: the Kd was determined as 0.746 nM, the off-rate (koff) worked out at 6.22e-05 s⁻¹ and the kon was 83400 M⁻¹ s⁻¹.
Taken in the same sequence, the figures for B21 were 0.649 nM, 5.36e-05 s⁻¹ and 82600 M⁻¹ s⁻¹.
The corresponding values for B22 are 0.646 nM, 6.32e-05 s⁻¹ and 97800 M⁻¹ s⁻¹.
The corresponding values for B23 are 7.78 nM, 0.000684 s⁻¹ and 87800 M⁻¹ s⁻¹.
As to B24, the dissociation constant Kd stood at 0.55 nM, the koff came to 4.17e-05 s⁻¹ and the association rate constant (kon) was 75700 M⁻¹ s⁻¹.

For the origin of these results see patent US20240360227A1.
